Data as given in patent US20200079854A1 (Johns Hopkins, published 2020).
Residue numbers refer to the chain shown, from its start.

B1: KRAS_G12D_A11_D14 (scFv)
scFv: DIQMTQSPSSLSASVGDRVTITCRASQDVNTAVAWYQQKPGKAPKLLIYSASFLYSGVPSRFSGSRSGTDFTLTISSLQPEDFATYYCQQYSYTPVTFGQGTKVEIKRTGGGSGGGGSGGGASEVQLVESGGGLVQPGGSLRLSCAASGFNVWGPGMHWVRQAPGKGLEWVARIHPFSGNTYYADSVKGRFTISADTSKNTAYLQMNSLRAEDTAVYYCSRGYSYSAMDYWGQGTLVTVSS
B2: KRAS_G12D_A11_D18 (scFv)
scFv: B1 scFv with T94E, W153S, P155S, G156Q, H175P, P176G, F177W, N180Y, S226F
B3: KRAS_G12D_A11_D3 (scFv)
scFv: DIQMTQSPSSLSASVGDRVTITCRASQDVNTAVAWYQQKPGKAPKLLIYSASFLYSGVPSRFSGSRSGTDFTLTISSLQPEDFATYYCQQYSYYPITFGQGTKVEIKRTGGGSGGGGSGGGASEVQLVESGGGLVQPGGSLRLSCAASGFNFSYGYMHWVRQAPGKGLEWVAWISGYTGNTYYADSVKGRFTISADTSKNTAYLQMNSLRAEDTAVYYCSRAASLSSSYYSAFDVWGQGTLVTVSS
B4: KRAS_G12D_A11_D22 (scFv)
scFv: DIQMTQSPSSLSASVGDRVTITCRASQDVNTAVAWYQQKPGKAPKLLIYSASFLYSGVPSRFSGSRSGTDFTLTISSLQPEDFATYYCQQYEYYPMTFGQGTKVEIKRTGGGSGGGGSGGGASEVQLVESGGGLVQPGGSLRLSCAASGFNVMYSTMHWVRQAPGKGLEWVASIYSWSDYTYYADSVKGRFTISADTSKNTAYLQMNSLRAEDTAVYYCSRGYAHNSFDYWGQGTLVTVSS
B5: KRAS_G12D_A11_D21 (scFv)
scFv: DIQMTQSPSSLSASVGDRVTITCRASQDVNTAVAWYQQKPGKAPKLLIYSASFLYSGVPSRFSGSRSGTDFTLTISSLQPEDFATYYCQQYAYYSPVTFGQGTKVEIKRTGGGSGGGGSGGGASEVQLVESGGGLVQPGGSLRLSCAASGFNIYGQMMHWVRQAPGKGLEWVAFLSPFSGNTYYADSVKGRFTISADTSKNTAYLQMNSLRAEDTAVYYCSRNISYEQSSAFDYWGQGTLVTVSS
B6: KRAS_G12V_A2_A1 (scFv)
scFv: DIQMTQSPSSLSASVGDRVTITCRASQDVNTAVAWYQQKPGKAPKLLIYSASFLYSGVPSRFSGSRSGTDFTLTISSLQPEDFATYYCQQWYSSPVTFGQGTKVEIKRTGGGSGGGGSGGGASEVQLVESGGGLVQPGGSLRLSCAASGFNINWANMHWVRQAPGKGLEWVAQISPPYDYTNYADSVKGRFTISADTSKNTAYLQMNSLRAEDTAVYYCSRSYSYYFDYWGQGTLVTVSS
B7: KRAS_G12V_A2_A5 (scFv)
scFv: B6 scFv with N153Y, A155S, N156H, Q173I, P176S, P177F, Y178E, D179G, N182Y, F227M
B8: CTNNB_S45_FA3_c13 (scFv)
scFv: DIQMTQSPSSLSASVGDRVTITCRASQDVNTAVAWYQQKPGKAPKLLIYSAYFLYSGVPSRFSGSRSGTDFTLTISSLQPEDFATYYCQQIYTSPITFGQGTKVEIKRTGGGSGGGGSGGGASEVQLVESGGGLVQPGGSLRLSCAASGFNFITTGMHWVRQAPGKGLEWVARIGPGSDYTNYADSVKGRFTISADTSKNTAYLQMNSLRAEDTAVYYCSRYYYASALDYWGQGTLVTVSS
B9: CTNNB_S45_FA3 c17 (scFv)
scFv: DIQMTQSPSSLSASVGDRVTITCRASQDVNTAVAWYQQKPGKAPKLLIYSASFLYSGVPSRFSGSRSGTDFTLTISSLQPEDFATYYCQQQYAYTPITFGQGTKVEIKRTGGGSGGGGSGGGASEVQLVESGGGLVQPGGSLRLSCAASGFNVWSYGIHWVRQAPGKGLEWVAGVTPDGSYTYYADSVKGRFTISADTSKNTAYLQMNSLRAEDTAVYYCSRSYGWAMDYWGQGTLVTVSS
B10: CTNNB_S45_FA3_c14 (scFv)
scFv: DIQMTQSPSSLSASVGDRVTITCRASQDVNTAVAWYQQKPGKAPKLLIYSASFLYSGVPSRFSGSRSGTDFTLTISSLQPEDFATYYCQQRAYFPITFGQGTKVEIKRTGGGSGGGGSGGGASEVQLVESGGGLVQPGGSLRLSCAASGFNFSDYGMHWVRQAPGKGLEWVAMLIPASGYTNYADSVKGRFTISADTSKNTAYLQMNSLRAEDTAVYYCSRGWSYYMDYWGQGTLVTVSS
B11: CTNNB_S45_FA3 c19 (scFv)
scFv: DIQMTQSPSSLSASVGDRVTITCRASQDVNTAVAWYQQKPGKAPKLLIYSAYFLYSGVPSRFSGSRSGTDFTLTISSLQPEDFATYYCQQIHYKPLTFGQGTKVEIKRTGGGSGGGGSGGGASEVQLVESGGGLVQPGGSLRLSCAASGFNVAWYSIHWVRQAPGKGLEWVAQVYGGSSYTYYADSVKGRFTISADTSKNTAYLQMNSLRAEDTAVYYCSRDFYSSGMDYWGQGTLVTVSS
B12: CTNNB_S45F_A3_E10 (scFv)
scFv: DIQMTQSPSSLSASVGDRVTITCRASQDVNTAVAWYQQKPGKAPKLLIYSASFLYSGVPSRFSGSRSGTDFTLTISSLQPEDFATYYCQQSYYSPPTFGQGTKVEIKRTGGGSGGGASEVQLVESGGGLVQPGGSLRLSCAASGFNINNTYIHWVRQAPGKGLEWVASIYPTDGYTRYADSVKGRFTISADTSKNTAYLQMNSLRAEDTAVYYCSRTYYSYYSAMDVWGQGTLVTVSS
B13: KRAS G12V_A3_V12 (scFv)
scFv: DIQMTQSPSSLSASVGDRVTITCRASQDVNTAVAWYQQKPGKAPKLLIYSASFLYSGVPSRFSGSRSGTDFTLTISSLQPEDFATYYCQQASYYYPLTFGQGTKVEIKRTGGGSGGGGSGGGASEVQLVESGGGLVQPGGSLRLSCAASGFNISASGMHWVRQAPGKGLEWVADIHPLKPYTNYADSVKGRFTISADTSKNTAYLQMNSLRAEDTAVYYCSRYSSMYYYYFDYWGQGTLVTVSS
B14: KRAS G12V_A3_c120 (scFv)
scFv: DIQMTQSPSSLSASVGDRVTITCRASQDVNTAVAWYQQKPGKAPKLLIYSASFLYSGVPSRFSGSRSGTDFTLTISSLQPEDFATYYCQQKSEYSPWTFGQGTKVEIKRTGGGSGGGGSGGGASEVQLVESGGGLVQPGGSLRLSCAASGFNIYRYGIHWVRQAPGKGLEWVAVLYPYGYSTSYADSVKGRFTISADTSKNTAYLQMNSLRAEDTAVYYCSRSYAYGYFAYWGQGTLVTVSS
B15: KRAS G12V_A3_c121 (scFv)
scFv: DIQMTQSPSSLSASVGDRVTITCRASQDVNTAVAWYQQKPGKAPKLLIYSASFLYSGVPSRFSGSRSGTDFTLTISSLQPEDFATYYCQQSGYIPFTFGQGTKVEIKRTGGGSGGGGSGGGASEVQLVESGGGLVQPGGSLRLSCAASGFNIYGTMMHWVRQAPGKGLEWVAQFKPDSYNTYYADSVKGRFTISADTSKNTAYLQMNSLRAEDTAVYYCSRGEVYHYYAFDYWGQGTLVTVSS
B16: KRAS G12V_A3_c122 (scFv)
scFv: DIQMTQSPSSLSASVGDRVTITCRASQDVNTAVAWYQQKPGKAPKLLIYSASFLYSGVPSRFSGSRSGTDFTLTISSLQPEDFATYYCQQGAYYRPFTFGQGTKVEIKRTGGGSGGGGSGGGASEVQLVESGGGLVQPGGSLRLSCAASGFNISYSYMHWVRQAPGKGLEWVATLLPYDGNTYYADSVKGRFTISADTSKNTAYLQMNSLRAEDTAVYYCSRAAYSSMDVWGQGTLVTVSS
B17: KRAS_G12D_A3_D12 (scFv)
scFv: DIQMTQSPSSLSASVGDRVTITCRASQDVNTAVAWYQQKPGKAPKLLIYSASFLYSGVPSRFSGSRSGTDFTLTISSLQPEDFATYYCQQSSSSPITFGQGTKVEIKRTGGGSGGGGSGGGASEVQLVESGGGLVQPGGSLRLSCAASGFNISGYGMHWVRQAPGKGLEWVAYLYGGSDYTNYADSVKGRFTISADTSKNTAYLQMNSLRAEDTAVYYCSRTVRYAFDYWGQGTLVTVSS
B18: KRAS_G12D_A3_D15 (scFv)
scFv: DIQMTQSPSSLSASVGDRVTITCRASQDVNTAVAWYQQKPGKAPKLLIYSASFLYSGVPSRFSGSRSGTDFTLTISSLQPEDFATYYCQQSSASPLTFGQGTKVEIKRTGGGSGGGGSGGGASEVQLVESGGGLVQPGGSLRLSCAASGFNVSSVGMHWVRQAPGKGLEWVAYIYGTSDYTYYADSVKGRFTISADTSKNTAYLQMNSLRAEDTAVYYCSRSSRYSMDYWGQGTLVTVSS
B19: KRAS_G12D_A3_c111 (scFv)
scFv: DIQMTQSPSSLSASVGDRVTITCRASQDVNTAVAWYQQKPGKAPKLLIYSASFLYSGVPSRFSGSRSGTDFTLTISSLQPEDFATYYCQQYMYSPVTFGQGTKVEIKRTGGGSGGGGSGGGASEVQLVESGGGLVQPGGSLRLSCAASGFNVSAYWMHWVRQAPGKGLEWVAQIYGGSGYTMYADSVKGRFTISADTSKNTAYLQMNSLRAEDTAVYYCSRTHSYWSAFDYWGQGTLVTVSS
B20: KRAS_G12D_A3_D26 (scFv)
scFv: DIQMTQSPSSLSASVGDRVTITCRASQDVNTAVAWYQQKPGKAPKLLIYSASFLYSGVPSRFSGSRSGTDFTLTISSLQPEDFATYYCQQYAYSPLTFGQGTKVEIKRTGGGSGGGGSGGGASEVQLVESGGGLVQPGGSLRLSCAASGFNVSSYGMHWVRQAPGKGLEWVAFIAPRRDYTSYADSVKGRFTISADTSKNTAYLQMNSLRAEDTAVYYCSRKSSYYFDYWGQGTLVTVSS

target: KRAS wt(7-16) peptide … with HLA-A11 and b2M on peptide-pulsed Hs611.T cells (human); assay: flow cytometry, phage-displayed scFv on peptide-pulsed Hs611.T cells (FIG. 9)
Procedure: (§1) Cells were stained with 10 of precipitated phage per 100 μL of cells, washed and stained with rabbit anti-M13 antibody, then washed and stained with anti-Rabbit-PE antibody. Cells were stained with a live/dead Near-IR dye, washed, and analyzed by an LSRII flow cytometer.
(§2) The pulsed cells were pelleted, washed once in cold stain buffer (PBS containing 0.5% BSA, 2 mM EDTA, and 0.1% sodium azide), and resuspended in 100 μL of stain buffer. Phage staining was performed on ice with 10 uL (approximately 1×10⁹) phage for 1 hour in 100 uL total volume, followed by one 4 mL wash in cold stain buffer. Cells were then stained with 1 uL of rabbit anti-M13 antibody (Pierce, Rockford, Ill.) in 100 uL total volume on ice for 1 hour and washed once with 4 mL of cold stain buffer. Cells were stained with anti-rabbit-PE (Biolegend) on ice for 1 hour in 100 uL total volume, followed by incubation with LIVE/DEAD Fixable Near-IR Dead Cell Stain (Thermo Fisher) for 10 min at room temperature per manufacturer's instructions. Cells were washed once in 4 mL of stain buffer followed by resuspension in 300 uL of stain buffer before analysis. Stained cells were analyzed using an LSRII flow cytometer (Becton Dickinson, Mansfield, Mass.).

Row | binding result | Binder
1 | no binding | B1
2 | no binding | B2
3 | no binding | B3
4 | no binding | B4
5 | no binding | B5

target: KRAS wt(6-14) peptide … with HLA-A2 and b2M on peptide-pulsed T2 cells (human); assay: flow cytometry, phage-displayed scFv on peptide-pulsed T2 cells (FIG. 5)
Procedure: (§3) Cells were stained with 10 μL of precipitated phage per 100 μL of cells, washed and stained with rabbit anti-M13 antibody, then washed and stained with anti-Rabbit-PE antibody. Cells were stained with a live/dead Near-IR dye, washed, and analyzed by an LSRII flow cytometer.
as §2

Row | binding result | Binder
6 | no binding | B6
7 | no binding | B7

target: CTNNB wt(41-49) peptide … with HLA-A3 and b2M on peptide-pulsed T2A3 cells (human); assay: flow cytometry, phage-displayed scFv on peptide-pulsed T2A3 cells (FIG. 12)
Procedure: as §1, §2

Row | binding result | Binder
8 | no binding | B8
9 | no binding | B9
10 | no binding | B10
11 | no binding | B11
12 | no binding | B12

target: T1, KRAS wt(7-16) peptide … with HLA-A3 and b2M on cells (human); assay: flow cytometry, phage-displayed scFv on peptide-pulsed T2A3 cells (FIG. 7)
T1 construct: peptide-pulsed T2A3 cells in flow cytometry
Procedure: as §2

Row | binding result | Binder
13 | no binding | B13
14 | no binding | B14
15 | no binding | B15
16 | no binding | B16

target: T1, KRAS wt(7-16) peptide … with HLA-A3 and …; assay: flow cytometry, phage-displayed scFv on peptide-pulsed T2A3 cells (FIG. 8)
Procedure: as §3, §2

Row | binding result | Binder
17 | no binding | B17
18 | no binding | B18
19 | no binding | B19
20 | no binding | B20
